From publication PMC12705745 come the findings set out here.

In the assay the target is T1, recombinant human C-reactive protein (human), P02741.
T1 chain: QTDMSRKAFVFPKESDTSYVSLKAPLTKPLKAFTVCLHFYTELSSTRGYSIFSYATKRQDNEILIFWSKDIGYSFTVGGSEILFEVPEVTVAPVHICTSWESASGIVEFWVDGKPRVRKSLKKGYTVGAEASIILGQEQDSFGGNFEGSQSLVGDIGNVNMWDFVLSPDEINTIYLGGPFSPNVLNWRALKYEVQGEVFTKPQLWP
Description: cryo-EM structure; hCRP 6 mg/ml incubated with 4.5 mM CPS23F on ice for ~1 h, 0.02% Tween-20; C5 symmetry applied during reconstruction; 2.78 Å. To be noted: remark: other sources report otherwise.

As a reminder, the stoichiometry N is the number of molecules, sites or subunits per partner or assembly.

B1: recombinant human C-reactive protein, P02741-1 19-224 (natural protein)
chain: QTDMSRKAFVFPKESDTSYVSLKAPLTKPLKAFTVCLHFYTELSSTRGYSIFSYATKRQDNEILIFWSKDIGYSFTVGGSEILFEVPEVTVAPVHICTSWESASGIVEFWVDGKPRVRKSLKKGYTVGAEASIILGQEQDSFGGNFEGSQSLVGDIGNVNMWDFVLSPDEINTIYLGGPFSPNVLNWRALKYEVQGEVFTKPQLWP
Turning to B1, the stoichiometry N was found to be 5.
